Experimental data from PMC8497992, “Structural and functional characterization explains loss of dNTPase activity of the cancer-specific R366C/H mutant SAMHD1 proteins”.

Key:
Assay in all cases: fluorescence polarization; 50 mM Tris-HCl pH 8.0, 50 mM KCl, 1 mM EDTA; 50 nM labeled oligonucleotide; temperature not stated
Conditions in all cases: protein: recombinant; chain copies: 2; label: 5'-6-carboxyfluorescein; single strand
[1] = target: SAMHD1 HD domain R366C (UniProt Q9Y3Z3 114-626, R366C)
[2] = target: SAMHD1 HD domain R366H (UniProt Q9Y3Z3 114-626, R366H)
[3] = target: SAMHD1 HD domain WT (UniProt Q9Y3Z3 114-626)
Chain of SAMHD1 HD domain WT (Q9Y3Z3 114-626): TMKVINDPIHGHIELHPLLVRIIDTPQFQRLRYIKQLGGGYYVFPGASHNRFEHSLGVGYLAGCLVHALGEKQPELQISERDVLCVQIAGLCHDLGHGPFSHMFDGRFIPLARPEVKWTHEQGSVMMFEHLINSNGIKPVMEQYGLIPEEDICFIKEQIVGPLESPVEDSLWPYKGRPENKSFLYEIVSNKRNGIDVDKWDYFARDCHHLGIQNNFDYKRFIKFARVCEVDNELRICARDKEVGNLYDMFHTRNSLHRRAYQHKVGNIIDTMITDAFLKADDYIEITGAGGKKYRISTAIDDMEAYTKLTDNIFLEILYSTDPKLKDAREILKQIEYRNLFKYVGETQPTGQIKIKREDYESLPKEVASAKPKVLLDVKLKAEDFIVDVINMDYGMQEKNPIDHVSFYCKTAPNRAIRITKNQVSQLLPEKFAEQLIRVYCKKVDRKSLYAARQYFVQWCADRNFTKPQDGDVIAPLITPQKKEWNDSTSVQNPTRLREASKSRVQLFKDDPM

Chain of SAMHD1 HD domain R366H (Q9Y3Z3 114-626 R366H): as the sequence (Q9Y3Z3 114-626) above, with R253H counted along it
Chain of SAMHD1 HD domain R366C (Q9Y3Z3 114-626 R366C): as the sequence (Q9Y3Z3 114-626) above, with R253C counted along it

B1: 6FAM-deoxy(C*G*C*C*T) (ssDNA)
DNA: CGCCT
modifications: * between all nucleotides (probably phosphorothioate; not defined in the material)
- Kd [1]: 689 ± 39 nM
- Kd [2]: 606 ± 46 nM
- Kd [3]: 147 ± 8.3 nM

B2: 6FAM-ribo(C*G*C*C*U) (ssRNA)
RNA: CGCCU
modifications: * between all nucleotides (probably phosphorothioate; not defined in the material)
- Kd [1]: 1450 ± 51 nM
- Kd [2]: 1120 ± 42 nM
- Kd [3]: 154 ± 4.2 nM
